Experimental findings from patent publication US9493557B2, “Chemokine binding polypeptides for treating autoimmunity and inflammation” (Biokine Therapeutics Ltd., priority 2009, dated 2016) are described below.

Type in all cases: cell-based
In assay [1] the target is T1, MCP-1 (Homo sapiens, UniProt P13500).
T1 construct: purchased PeproTech
Nature of the assay: In vitro T cell adhesion to VCAM-1 induced by MCP-1 under shear flow. As to conditions: for Inhibition of chemokine-dependent T cell adhesion: MCP-1: 10 μg/ml peptide, T cells on VCAM-1 under shear flow; for T cell adhesion induced by MCP-1 (result in words): T cells on VCAM-1. How it is done:
(§1) 50 ml of blood was added to 10 ml of a solution of Dextran T-500 (6% w/v) in PBS (phosphate buffer saline), and 7 ml of citrate buffer (25 grams citrate, 8 grams citric acid in 500 ml PBS). The solution was incubated for 30 minutes at 25° C. 10 ml of Ficoll 1077 was added to the bottom of the tube. The tube was then centrifuged at 2,000 rotations per minute for 30 minutes at 18° C. (with the brake mode of the centrifuge off). The interphase was collected and washed twice with 8 ml PBS with 5% FCS (fetal calf serum), followed by centrifugation at 1,400 rotations per minute for 5 minutes at 18° C. The cells were re-suspended in PBS with 5% FCS at a concentration less then 10^8 per ml. 2 ml of the cell solution were applied on a poly(methyl methacrylate) nylon wool column which was pre-soaked in PBS-5% FCS, and then incubated for 45 minutes at 25° C. Each column was washed with 8 ml PBS-5% FCS and the cells (T-cells and erythrocytes) were eluted by 50 ml of 5 mM EDTA (ethylenediaminetetraacetic acid) in PBS. A red pellet was obtained by centrifugation at 1,400 rotations per minute for 5 minutes at 4° C. (with the brake on).
(§2) In order to perform lysis of the erythrocytes, the red pellet was re-suspended in 5 ml of lysis-buffer (155 mM NH4Cl, 10 mM KHCO3, 0.1 mM EDTA, X0.1 PBS) for 4 minutes, followed by immediate addition of 50 ml of PBS with EDTA. Following centrifugation at 1,400 rotations per minute for 5 minutes at 4° C., the pellet was washed again with 50 ml PBS-EDTA and re-centrifuged under the same conditions. A white pellet was obtained and re-suspended in RPMI medium with 10% FCS, L-glutamine, sodium pyruvate and antibiotics at a concentration of 3×10^6 cells per ml. The cells were incubated for 2 hours at 37° C., followed by collection of the non-adherent cells. The cells were ready for use in experiments after overnight incubation at 37° C.
(§3) 10 μg/ml of human VCAM-1 and 2 μg/ml of a chemokine (intact MIG, IP-10, I-TAC, MCP-1, RANTES, SDF-1 (stromal cell-derived factor-1), BCA-1 (B lymphocyte chemoattractant-1), IL-8 (interleukin-8) or eotaxin, or heat-inactivated SDF-1 as a control) were dissolved in PBS buffered with 20 mM bicarbonate (pH 8.5), and incubated in polystyrene plates overnight at 4° C. Alternatively, 10 μg/ml of the chemokine was used, and the plates were incubated for 30 minutes at room temperature. […]
(§4) The plates were then assembled as the lower wall of a parallel wall flow chamber and mounted on the stage of an inverted microscope. […] The number of adherent cells resisting detachment by the elevated shear forces was determined after each interval by analysis of videotaped cell images, and was expressed as the percent of originally settled cells. […]

Assay [2] concerns the target T2, BCA-1 (Homo sapiens, UniProt O43927).
T2 sequence (O43927 23-109): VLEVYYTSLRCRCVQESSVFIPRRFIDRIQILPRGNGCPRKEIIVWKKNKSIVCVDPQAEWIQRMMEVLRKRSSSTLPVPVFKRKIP
Nature of the assay: In vitro T cell adhesion to VCAM-1 induced by BCA-1 under shear flow. As to conditions: 10 μg/ml peptide; T cells on VCAM-1 under shear flow. How it is done: (§5) 50 ml of blood was added to 10 ml of a solution of Dextran T-500 (6% w/v) in PBS (phosphate buffer saline), and 7 ml of citrate buffer (25 grams citrate, 8 grams citric acid in 500 ml PBS). The solution was incubated for 30 minutes at 25° C. 10 ml of Ficoll 1077 was added to the bottom of the tube. The tube was then centrifuged at 2,000 rotations per minute for 30 minutes at 18° C. (with the brake mode of the centrifuge off). The interphase was collected and washed twice with 8 ml PBS with 5% FCS (fetal calf serum), followed by centrifugation at 1,400 rotations per minute for 5 minutes at 18° C. The cells were re-suspended in PBS with 5% FCS at a concentration less then 10^8 per ml. […]
(§6) In order to perform lysis of the erythrocytes, the red pellet was re-suspended in 5 ml of lysis-buffer (155 mM NH4Cl, 10 mM KHCO3, 0.1 mM EDTA, X0.1 PBS) for 4 minutes, followed by immediate addition of 50 ml of PBS with EDTA. […] The cells were ready for use in experiments after overnight incubation at 37° C. […]
as §4

Assay [3] deals with T3, MIG (Homo sapiens, UniProt Q07325).
T3 construct: purchased PeproTech
T3 sequence (Q07325 23-125): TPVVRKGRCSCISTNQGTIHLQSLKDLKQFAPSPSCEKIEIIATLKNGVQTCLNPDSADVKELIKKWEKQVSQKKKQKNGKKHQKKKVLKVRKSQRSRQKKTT
The assay can be described thus: In vitro T cell adhesion to VCAM-1 induced by MIG under shear flow. To be noted: for Inhibition of chemokine-dependent T cell adhesion: MIG: 10 μg/ml peptide, T cells on VCAM-1 under shear flow. On the procedure: as §1
(§7) In order to perform lysis of the erythrocytes, the red pellet was re-suspended in 5 ml of lysis-buffer (155 mM NH4Cl, 10 mM KHCO3, 0.1 mM EDTA, X0.1 PBS) for 4 minutes, followed by immediate addition of 50 ml of PBS with EDTA. Following centrifugation at 1,400 rotations per minute for 5 minutes at 4° C., the pellet was washed again with 50 ml PBS-EDTA and re-centrifuged under the same conditions. […] The cells were ready for use in experiments after overnight incubation at 37° C. […]
as §4

For assay [4], the target named is T4, IP-10 (Homo sapiens, UniProt P02778).
T4 construct: purchased PeproTech
T4 sequence (P02778 22-98): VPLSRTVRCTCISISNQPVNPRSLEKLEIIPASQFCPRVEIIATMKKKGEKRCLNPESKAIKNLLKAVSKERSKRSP
The assay can be described thus: In vitro T cell adhesion to VCAM-1 induced by IP-10 under shear flow. As to conditions: for Inhibition of chemokine-dependent T cell adhesion: IP-10: 10 μg/ml peptide, T cells on VCAM-1 under shear flow. On the procedure:
as §1, §7, §4

The target in assay [5] is T5, Eotaxin (Homo sapiens, UniProt P51671).
T5 construct: purchased PeproTech
Nature of the assay: In vitro T cell adhesion to VCAM-1 induced by eotaxin under shear flow. As to conditions: for Inhibition of chemokine-dependent T cell adhesion: Eotaxin: 10 μg/ml peptide, T cells on VCAM-1 under shear flow. On the procedure: as §1, §7, §4

The target of assay [6] is T6, I-TAC (Homo sapiens, UniProt O14625).
T6 construct: purchased PeproTech
T6 sequence (O14625 22-94): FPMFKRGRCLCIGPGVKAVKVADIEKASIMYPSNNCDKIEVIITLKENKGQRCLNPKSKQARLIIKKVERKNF
The assay can be described thus: In vitro T cell adhesion to VCAM-1 induced by I-TAC under shear flow. As to conditions: for Inhibition of chemokine-dependent T cell adhesion: I-TAC: 10 μg/ml peptide, T cells on VCAM-1 under shear flow; for T cell adhesion induced by I-TAC (result in words): T cells on VCAM-1. On the procedure:
as §1, §2, §3, §4

Assay [7] addresses T7, SDF-1 (Homo sapiens, UniProt P48061).
T7 construct: purchased PeproTech
Nature of the assay: In vitro T cell adhesion to VCAM-1 induced by SDF-1 under shear flow. As to conditions: 10 μg/ml peptide; T cells on VCAM-1 under shear flow. On the procedure:
as §5, §6, §4

Assay [8] concerns the target T8, RANTES (Homo sapiens, UniProt P13501).
T8 construct: purchased PeproTech
T8 sequence (P13501 24-91): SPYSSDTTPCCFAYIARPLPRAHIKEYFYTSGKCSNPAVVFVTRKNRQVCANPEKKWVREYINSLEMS
Nature of the assay: In vitro T cell adhesion to VCAM-1 induced by RANTES under shear flow. To be noted: for Inhibition of chemokine-dependent T cell adhesion: RANTES: 10 μg/ml peptide, T cells on VCAM-1 under shear flow; for T cell adhesion induced by RANTES (result in words): T cells on VCAM-1. How it is done: as §1, §2, §3, §4

Assay [9] deals with T9, IL-8 (Homo sapiens, UniProt P10145).
T9 construct: purchased PeproTech
T9 sequence (P10145 21-99): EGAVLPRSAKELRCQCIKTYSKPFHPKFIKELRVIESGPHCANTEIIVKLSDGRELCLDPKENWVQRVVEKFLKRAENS
The assay can be described thus: In vitro T cell adhesion to VCAM-1 induced by IL-8 under shear flow. To be noted: 10 μg/ml peptide; T cells on VCAM-1 under shear flow. On the procedure:
as §5, §6, §4

T1 sequence (P13500 24-99): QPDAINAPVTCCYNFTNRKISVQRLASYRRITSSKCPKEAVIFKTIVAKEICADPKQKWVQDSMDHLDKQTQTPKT
T5 sequence (P51671 24-97): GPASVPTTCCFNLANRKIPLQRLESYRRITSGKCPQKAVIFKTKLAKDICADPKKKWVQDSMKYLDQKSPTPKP
T7 sequence (P48061 22-89 limits assumed): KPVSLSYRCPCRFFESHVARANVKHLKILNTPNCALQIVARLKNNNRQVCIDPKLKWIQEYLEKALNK

Turning to “SIPSHSIHSAKA [BKT-P2, reference compound]”, in [1], the “Inhibition of chemokine-dependent T cell adhesion: MCP-1” value was “++ (++ = 100% inhibition)” and the “T cell adhesion induced by MCP-1 (result in words)” value is reported as “inhibited”. The “Inhibition of chemokine-dependent T cell adhesion: BCA-1” value in [2] was “− (− = no inhibition)”. In assay [3], the “Inhibition of chemokine-dependent T cell adhesion: MIG” value is recorded as “− (− = no inhibition)”. Further, in assay [4], the “Inhibition of chemokine-dependent T cell adhesion: IP-10” value is recorded as “++ (++ = 100% inhibition)”. In assay [4] (T cells on VCAM-1), the “T cell adhesion induced by IP-10 (result in words)” value is reported as “inhibited”. Moreover, the “Inhibition of chemokine-dependent T cell adhesion: Eotaxin” value in [5] was “++ (++ = 100% inhibition)”. Further, in assay [5] (T cells on VCAM-1), the “T cell adhesion induced by eotaxin (result in words)” value is given as “inhibited”. Further, in assay [6], the “Inhibition of chemokine-dependent T cell adhesion: I-TAC” value is reported as “++ (++ = 100% inhibition)” and the “T cell adhesion induced by I-TAC (result in words)” value was “inhibited”. Further, the “Inhibition of chemokine-dependent T cell adhesion: SDF-1” value in assay [7] is reported as “− (− = no inhibition)”. In assay [8], the “Inhibition of chemokine-dependent T cell adhesion: RANTES” value was “++ (++ = 100% inhibition)” and the “T cell adhesion induced by RANTES (result in words)” value is recorded as “inhibited”.

For “LDYPIPQTVLHH [BKT-P46, reference compound]”, in assay [1], the “Inhibition of chemokine-dependent T cell adhesion: MCP-1” value is “++ (++ = 100% inhibition)” and the “T cell adhesion induced by MCP-1 (result in words)” value was “inhibited”. The “Inhibition of chemokine-dependent T cell adhesion: MIG” value in assay [3] is on record as “++ (++ = 100% inhibition)”. Further, the “T cell adhesion induced by MIG (result in words)” value in assay [3] (T cells on VCAM-1) is listed as “inhibited”. Further, the “Inhibition of chemokine-dependent T cell adhesion: IP-10” value in assay [4] is on record as “− (− = no inhibition)”. Besides, the “Inhibition of chemokine-dependent T cell adhesion: Eotaxin” value in assay [5] is recorded as “− (− = no inhibition)”. Besides, in assay [6], the “Inhibition of chemokine-dependent T cell adhesion: I-TAC” value was “++ (++ = 100% inhibition)” and the “T cell adhesion induced by I-TAC (result in words)” value is listed as “inhibited”. In [7], the “Inhibition of chemokine-dependent T cell adhesion: SDF-1” value is “− (− = no inhibition)”. Further, in assay [8], the “Inhibition of chemokine-dependent T cell adhesion: RANTES” value is reported as “++ (++ = 100% inhibition)” and the “T cell adhesion induced by RANTES (result in words)” value is “inhibited”. In addition, in [9], the “Inhibition of chemokine-dependent T cell adhesion: IL-8” value is given as “− (− = no inhibition)”.
